# Laboratory results from article PMC2229597.
# Read-outs that look alike come from different tables or passages of the source.
# Columns and labels:
# [1] = target: CNGA2 mutant channel 2-D316C (UniProt Q00195)
# [2] = target: CNGA2 mutant channel 2-Y321C modified with MTSES (UniProt Q00195)
# [3] = target: CNGA2 mutant channel 2-Y321C modified with MTSET (UniProt Q00195)
# [4] = target: CNGA2 mutant channel 2-D316N (UniProt Q00195)
# [5] = target: CNGA2 mutant channel 2-Y321R (UniProt Q00195)
# [6] = target: CNGA3 double mutant channel 3-N361D/R366Y (UniProt Q29441)
# [7] = target: CNGA3 mutant channel 3-N361D (UniProt Q29441)
# [8] = target: CNGA3 mutant channel 3-R366Y (UniProt Q29441)
# [9] = target: CNGA2 mutant channel 2-E325K (UniProt Q00195); experiment: patch-clamp electrophysiology
# [10] = target: CNGA2 mutant channel 2-S301F (UniProt Q00195); experiment: patch-clamp electrophysiology
# [11] = target: CNGA2 mutant channel 2-T308S (UniProt Q00195); experiment: patch-clamp electrophysiology
# [12] = target: heteromeric CNG channel containing CNGA2 and CNGA4 (UniProt Q00195); experiment: patch-clamp electrophysiology
# [13] = target: homomeric CNG channel composed of olfactory CNGA2 (UniProt Q00195); experiment: patch-clamp electrophysiology
# [14] = target: homomeric CNG channel composed of olfactory CNGA2 (UniProt Q00195); experiment: patch-clamp electrophysiology; remark: listed apart in the source
# [15] = target: homomeric CNG channel composed of olfactory CNGA2 (UniProt Q00195); experiment: patch-clamp electrophysiology; remark: listed apart in the source
substance,measurement,setting,value
Pseudechetoxin (natural protein),"block of current by 500 nM PsTx, outside-out patches from oocytes",[1],33%
same,block of current by 500 nM PsTx after modification of the patch with MTSES,[2],93%
same,block of current by 500 nM PsTx after modification of the patch with MTSET,[3],81%
same,"inhibition of current by 500 nM PsTx at −60 mV, outside-out patches from oocytes",[4],< 5%
same,"inhibition of current by 500 nM PsTx at −60 mV, outside-out patches from oocytes",[5],< 5%
same,"inhibition of current by 500 nM PsTx, outside-out patches from oocytes (n = 4)",[6],84%
same,"inhibition of current by 500 nM PsTx, outside-out patches from oocytes (n = 9)",[7],15%
same,"inhibition of current by 500 nM PsTx, outside-out patches from oocytes",[8],2%
same,Ki,[9],123 nM
same,Ki,[10],16 nM
same,Ki,[11],16 nM
same,Kd,[12],100 nM
same,Ki,[13],32 nM
same,time constant of wash-off (dissociation),[13],67 s
same,Ki,[14],24 nM
same,Ki,[15],180 nM
